Results on one molecule are retold here after patent publication US20210355194A1 (TWIST BIOSCIENCE, published 2021).

Assay [1] addresses T1, SARS-CoV-2 S1 (antigen of the Carterra SPR kinetics) (SARS-CoV-2, UniProt P0DTC2 16-685). In words: Carterra SPR.
Assay [2] addresses T1, SARS-CoV-2 S1 (antigen of the Carterra …). In words: Carterra SPR. The source holds these as a separate data set.
Assay [3] deals with T2, COVID S1 RBM Fc fusion (Antigen 2) (SARS-CoV-2, UniProt P0DTC2 437-508).
T2 construct: domain: RBM
The assay is described as follows: phage ELISA. For orientation: ELISA stands for enzyme-linked immunosorbent assay.

Assay [4] concerns the target T3, COVID S1 RBD Fc fusion (Antigen 1) (SARS-CoV-2, UniProt P0DTC2 319-541). The assay is described as follows: phage ELISA.
For assay [5], the target named is T4, S1 Fc fusion protein (SARS-CoV-2, UniProt P0DTC2 14-685).
T4 construct: domain: S1
In words: phage ELISA.

Assay [6] deals with T2, COVID S1 RBM Fc fusion (Antigen 2). In words: phage ELISA. This is another data set of the same source.
The target of assay [7] is T3, COVID S1 RBD Fc fusion (Antigen 1). The assay is described as follows: phage ELISA. The source holds these as a separate data set.
Assay [8] addresses T4, S1 Fc fusion protein. In words: phage ELISA. The source holds these as a separate data set.

Read-outs that look alike come from different tables or passages of the source.

B1: SARS-CoV-2 S1 variant 2-2 (antibody, V domains shown)
VH: EVQLLESGGGLVQPGGSLRLSCAASGFTFSRHAMNWVRQAPGKGLEWVSGISGSGDETYYADSVKGRFTISRDNSKNTLYLQMNSLRAEDTAVYYCARDLPASYYDSSGYYWHNGMDVWGQGTLVTVSS
VL: DIQMTQSPSSLSASVGDRVTITCRASQTINTYLNWYQQKPGKAPKLLIYSASTLQSGVPSRFSGSGSGTDFTLTISSLQPEDFATYYCQQSYSTFTFGQGTKVEIK
B1: binding in assay [1] was characterised by a dissociation constant (Kd) of 11.7 nM. For the same molecule, the koff in assay [1] and in assay [2] was 0.000906 s⁻¹ throughout. The kon in assay [1] and in assay [2] was 77400 M⁻¹ s⁻¹ each time. For the same molecule, the “ELISA fold over background” value in assay [3] turned out to be 1.1 fold; in assay [4] it was 39.6 fold; in assay [5] it was 4.7 fold; in assay [6], 1.1 fold; in assay [7], 39.6 fold; in assay [8], 4.7 fold.
